These results are taken from article PMC10572589.

Assay [1] addresses AusM^N127A (Aspergillus usamii E001 (parent AuXyn11A)).
Assay [2] addresses thermostable GHF11 xylanase AusM (Aspergillus usamii E001 (parent AuXyn11A)).

B1: xylanase inhibitor protein SyXIP-I (natural protein)
chain: AGGKTGQVTVFWGRNKAEGSLREACDSGMYTMVTMSFLDVFGANGKYHLDLSGHDLSSVGADIKHCQSKGVPVSLSIGGYGTGYSLPSNRSALDLFDHLWNSYFGGSKPSVPRPFGDAWLDGVDLFLEHGTPADRYDVLALELAKHNIRGGPGKPLHLTATVRCGYPPAAHVGRALATGIFERVHVRTYESDKWCNQNLGWEGSWDKWTAAYPATRFYVGLTADDKSHQWVHPKNVYYGVAPVAQKKDNYGGIMLWDRYFDKQTNYSSLIKYYA
B1: in assay [1], the residual xylanase activity at a molar ratio of SyXIP-I/xylanase of 100:1 (% of initial activity) was 62.7. In addition, in assay [2], the molar excess of SyXIP-I over AusM needed for almost complete inhibition of xylanase activity (mol SyXIP-I per mol AusM) is above 80 and the molar ratio of SyXIP-I to AusM at which the inhibition rate of xylanase activity reached 50% (birchwood xylan, pH 4.6, 50 °C) (mol SyXIP-I per mol AusM) turned out to be 7.
